# Literature values, collected in publication PMC4965143.
# Where two headings read alike, the source gives them in different places.
# What was measured:
# [1] = target: PGC-1α coactivator peptide (Homo sapiens) (UniProt Q9UBK2)
# [2] = target: PGC-1α coactivator peptide (Homo sapiens) (UniProt Q9UBK2); remark: listed apart in the source
# UniProt Q9UBK2, sequence (Q9UBK2 whole entry): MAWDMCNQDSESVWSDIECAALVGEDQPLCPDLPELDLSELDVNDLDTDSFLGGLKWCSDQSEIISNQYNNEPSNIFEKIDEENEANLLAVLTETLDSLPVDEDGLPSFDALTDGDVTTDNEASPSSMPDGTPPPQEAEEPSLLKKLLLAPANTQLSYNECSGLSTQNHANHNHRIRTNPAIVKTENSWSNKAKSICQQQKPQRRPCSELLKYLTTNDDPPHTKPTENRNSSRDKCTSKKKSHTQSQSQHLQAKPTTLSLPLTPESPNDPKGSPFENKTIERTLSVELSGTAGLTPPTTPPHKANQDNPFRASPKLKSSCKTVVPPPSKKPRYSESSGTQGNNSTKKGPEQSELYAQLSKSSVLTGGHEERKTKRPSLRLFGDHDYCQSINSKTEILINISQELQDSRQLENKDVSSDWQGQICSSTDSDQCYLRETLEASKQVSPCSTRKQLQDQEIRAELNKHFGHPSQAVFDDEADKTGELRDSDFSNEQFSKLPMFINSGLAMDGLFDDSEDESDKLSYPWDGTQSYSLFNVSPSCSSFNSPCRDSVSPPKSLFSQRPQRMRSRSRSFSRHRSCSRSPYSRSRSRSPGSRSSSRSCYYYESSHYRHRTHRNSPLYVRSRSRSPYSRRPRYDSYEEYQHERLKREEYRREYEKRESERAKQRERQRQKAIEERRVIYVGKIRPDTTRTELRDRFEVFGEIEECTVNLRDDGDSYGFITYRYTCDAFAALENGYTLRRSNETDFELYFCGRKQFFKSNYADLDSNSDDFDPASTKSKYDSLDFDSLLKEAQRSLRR
substance,measurement,setting,value
SF-1 LBD (from UniProt Q13285),Kd,[1],8.5 µM
same,Kd,[2],6 µM
